In US6491908:
Read-outs that look alike come from different tables or passages of the source.

Key:
Experiment in all cases: cell-based or functional assay
[1] = biological target: CD3 portion of the T cell receptor on Jurkat cells (human) (UniProt P07766)
[2] = biological target: CD3 portion of the T cell receptor on Jurkat cells (human) (UniProt P07766); remark: listed apart in the source
[3] = biological target: mouse class I MHC D^d (full length, without signaling molecule) (mouse) (UniProt P01900)
[4] = biological target: D^d/zeta chimera (mouse class I MHC D^d fused to the murine T cell receptor zeta chain) (mouse) (UniProt P24161)
[5] = biological target: mouse class I MHC D^d (full length, without signaling molecule) (mouse) (UniProt P01900); remark: listed apart in the source
[6] = biological target: D^d/zeta chimera (mouse class I MHC D^d fused to the murine T cell receptor zeta chain) (mouse) (UniProt P24161); remark: listed apart in the source

Chain of mouse class I MHC D^d (full length, without signaling molecule) (mouse) (P01900 25-365): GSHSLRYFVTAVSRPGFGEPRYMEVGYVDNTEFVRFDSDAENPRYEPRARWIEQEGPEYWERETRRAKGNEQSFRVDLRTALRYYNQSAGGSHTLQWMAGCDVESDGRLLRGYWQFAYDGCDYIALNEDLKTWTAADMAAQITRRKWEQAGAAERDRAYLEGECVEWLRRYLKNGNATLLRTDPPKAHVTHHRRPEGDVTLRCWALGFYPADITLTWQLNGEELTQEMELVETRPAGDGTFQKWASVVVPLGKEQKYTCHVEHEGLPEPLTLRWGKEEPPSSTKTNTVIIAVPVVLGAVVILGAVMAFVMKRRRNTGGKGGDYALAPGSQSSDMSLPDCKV
Chain of CD3 portion of the T cell receptor on Jurkat cells (human) (P07766 23-207): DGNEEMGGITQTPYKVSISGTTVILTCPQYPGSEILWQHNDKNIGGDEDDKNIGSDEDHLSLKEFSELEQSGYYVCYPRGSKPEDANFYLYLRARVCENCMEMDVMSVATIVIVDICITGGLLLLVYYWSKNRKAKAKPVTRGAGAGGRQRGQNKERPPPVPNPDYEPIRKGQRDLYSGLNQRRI

Work on OKT3, an anti-CD3 antibody yielded a Proliferation (CPM) of CTLL-2 cells (IL-2 in supernatant of #19 (D^d) Jurkat cells), with PMA [1] of 10900 CPM, a Proliferation (CPM) of CTLL-2 cells (IL-2 in supernatant of #19 (D^d) Jurkat cells), without PMA [1] of 9530 CPM and a Proliferation (CPM) of CTLL-2 cells (IL-2 in supernatant of untransfected Jurkat cells), with PMA [2] of 2200 CPM. The Proliferation (CPM) of CTLL-2 cells (IL-2 in supernatant of untransfected Jurkat cells), without PMA [2] was 1180 CPM.

With anti-D^d monoclonal antibody (34-2-12) the Proliferation (CPM) of CTLL-2 cells (IL-2 in supernatant of #19 (D^d) Jurkat cells), with PMA [3] was 5520 CPM, the Proliferation (CPM) of CTLL-2 cells (IL-2 in supernatant of #19 (D^d) Jurkat cells), without PMA [3] was 492 CPM and the Proliferation (CPM) of CTLL-2 cells (IL-2 in supernatant of J11-6 (D^d/zeta) Jurkat cells), with PMA [4] was 16700 CPM. For the same substance, the Proliferation (CPM) of CTLL-2 cells (IL-2 in supernatant of J11-6 (D^d/zeta) Jurkat cells), without PMA [4] was 361 CPM, the cellular proliferation ([3H]TdR) of spleen lymphoid cells of pD^d1 (D^d) transgenic mice, anti-D^d + anti-CD8 + anti-CD3 mAbs together [5] was 25000 and the cellular proliferation ([3H]TdR) of spleen lymphoid cells of pD^d1 (D^d) transgenic mice, anti-D^d + anti-CD8 mAbs together [5] was 1240. It also gave a cellular proliferation ([3H]TdR) of spleen lymphoid cells of pD^d1 (D^d) transgenic mice, anti-D^d mAb alone [5] of 897, a Proliferation (CPM) of CTLL-2 cells (IL-2 in supernatant of J11-6 (D^d/zeta) Jurkat cells), with PMA [6] of 26800 CPM and a Proliferation (CPM) of CTLL-2 cells (IL-2 in supernatant of J11-6 (D^d/zeta) Jurkat cells), without PMA [6] of 338 CPM. The cellular proliferation ([3H]TdR) of spleen lymphoid cells of D^d/zeta transgenic mice, anti-D^d + anti-CD8 + anti-CD3 mAbs together [6] was 253000, the cellular proliferation ([3H]TdR) of spleen lymphoid cells of D^d/zeta transgenic mice, anti-D^d + anti-CD8 mAbs together [6] was 242000 and the cellular proliferation ([3H]TdR) of spleen lymphoid cells of D^d/zeta transgenic mice, anti-D^d mAb alone [6] was 303000. For the same substance, the fold enhancement of proliferation over the D^d alone expressing cells [6] was 10 to 300 fold.
